Laboratory results as given in patent US20090068110A1, “ANTIBODIES TO INSULIN-LIKE GROWTH FACTOR RECEPTOR” (Genentech, Inc., priority 2006, published 2009).

Biological target: T1, human IGF-1R-ECD (Homo sapiens, UniProt P08069)
T1 construct: containing the extracellular domain (ECD, amino acids 1-902) tagged with 10 or 12 histidine residues at the carboxyl terminus; His10 or His12 (C); made in house; host or cells: CHO cells
Test: competitive ELISA, blocking of IGF-I/II and IGF-1R interaction
Format: binding
Settings: antibody 100 nM to 0.0976 nM, biotinyl-IGF-I or IGF-II 60 ng/ml
Experimental: To determine whether the anti-IGF-1R antibodies could block ligand/receptor interaction, competitive ELISA was utilized. Human IGF-1R-ECD was coated overnight at 4° C. at 1 μg/ml in a 96-well immunoplate (Nalge Nunc International, Rochester, N.Y., USA). The ELISA plate was washed with wash buffer (PBS, 0.05% TWEEN™ 20 surfactant, pH 7.4), and 150 μl/well of blocking buffer (PBS with 0.5% BSA) was added for one hour at room temperature with gentle agitation. Purified anti-IGF-1R antibodies were first subjected to a two-fold dilution from 100 nM to 0.0976 nM in assay buffer (PBS, 0.5% BSA and 0.05% TWEEN™ 20 surfactant, pH 7.4) and added to the immunoplate to incubate at room temperature for one hour. Biothinyl-IGF-I or IGF-II at 60 ng/ml concentrations (Cell Science, Canton, Mass., USA) was then added and incubated for another 30 minutes. The ELISA plate was washed three times, and 100 μl/well of streptavidin-HRP (GE Healthcare, Piscataway, N.J., USA) at a dilution of 1:6,000 was added for 20 minutes. Color development was conducted as described in conjunction with the direct ELISA. The selected anti-IGF-1R antibodies inhibited IGF-I or IGF-II binding to IGF-1R to various degrees (FIGS. 19A and 19B for IGF-I and IGF-II, respectively).

| Molecule | inhibition of IGF-I or IGF-II binding to IGF-1R |
| --- | --- |
| 9F2: mouse monoclonal anti-IGF-1R antibody from hybridoma 9F2.6.2, ATCC PTA-7018 (antibody, V domains shown) VH: QIQLVQSGPELKKPGETVKISCKASGYTLANYGMNWVKQAPGKGFKWMGWINTNTGKPTYSDEFKGRFVFSLETSASTAYLLINNLSNEDTATYFCARSIYYYGSRYFNVWGAGTT VL: DIQMTQSTSSLSASLGDRVTISCRASQDINNYLTWYQQKPDGTVKLLIYYTSRLHSGVPSRFSGSGSGTDYSLTITNLEQEDFATYFCQQGNTLPWTFGEGTKVEIKR | most potent group |
| 10H5: mouse monoclonal anti-IGF-1R antibody from hybridoma 10H5.3.4, ATCC PTA-7007 (antibody, V domains shown) VH: QVQLQQPGAELVKPGASVTLSCKASGYTFTRFWIHWVKQRPGQGLEWIGEINPSNGRTNYNENFKNKATLTVDTSSSTAYMQLSSLTSEVSVVYYCARGGRLDQWGQGTT VL: DIVMTQSQKFMSTSLGDRVSVTCKASQNVGSNVAWYQQKPGQSPEALIYSASYRYSGVPDRFTGSGSGTDFTLTISNVQSEDLAEYFCHQYNNYPYTFGGGTKVEIKR | most potent group |
